Results from patent EP4725501A1 (Staidson (Beijing) Biopharmaceuticals Co., Ltd., dated 2026).
Like-named read-outs stand apart in the source and are kept apart here.

Tests used:
[1] = target: T1, MASP2 in normal human plasma (human, UniProt O00187 16-686); assay: cell-based or functional assay
[2] = target: T2, human MASP2 (R444Q) - His (human, UniProt O00187 16-686); assay: ELISA; human MASP2 (R444Q)-His coated 0.1 ug/well, antibody titrated, goat anti-human IgG HRP
T2 construct: not shown: His tag at the C-terminus
T2 sequence (O00187 16-686 R444Q limits assumed): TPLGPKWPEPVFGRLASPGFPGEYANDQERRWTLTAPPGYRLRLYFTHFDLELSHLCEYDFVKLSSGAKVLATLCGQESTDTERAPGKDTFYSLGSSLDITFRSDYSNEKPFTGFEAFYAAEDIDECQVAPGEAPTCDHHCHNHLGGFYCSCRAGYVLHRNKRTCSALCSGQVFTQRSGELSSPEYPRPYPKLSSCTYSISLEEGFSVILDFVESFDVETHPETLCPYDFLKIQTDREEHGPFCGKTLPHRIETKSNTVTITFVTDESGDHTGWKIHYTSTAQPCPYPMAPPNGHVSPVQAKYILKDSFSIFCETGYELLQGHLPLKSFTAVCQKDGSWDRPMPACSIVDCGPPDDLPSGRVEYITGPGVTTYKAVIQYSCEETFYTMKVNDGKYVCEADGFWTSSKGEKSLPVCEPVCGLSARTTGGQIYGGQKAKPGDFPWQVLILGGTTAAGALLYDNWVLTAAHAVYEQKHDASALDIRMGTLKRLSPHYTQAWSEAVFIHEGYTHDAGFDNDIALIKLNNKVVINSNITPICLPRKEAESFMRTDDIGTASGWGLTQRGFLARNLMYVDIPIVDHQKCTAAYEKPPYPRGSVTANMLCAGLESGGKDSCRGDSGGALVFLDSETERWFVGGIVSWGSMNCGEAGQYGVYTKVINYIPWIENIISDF

[3] = target: T1, MASP2 in normal human plasma; assay: cell-based or functional assay; remark: listed apart in the source

T1 sequence (O00187 16-686 limits assumed): as the sequence (O00187 16-686 R444Q limits assumed) above, with Q429R counted along it

Row | Binder | IC50 (nM), inhibition of complement C4b deposition (mannan-coated plate, 1% human plasma) [1] | EC50 [2] | IC50 (nM), inhibition of complement C4b deposition (mannan-coated plate, 1% human plasma) [3]
1 | humM2mc51-1 (antibody, V domains shown, Humanized anti-MASP2 antibody; also called anti-MASP2 antibody humM2mc51-1; parent antibody humM2mc51-1) VH: QVQLQESGPGLVKPSETLSLTCTVSGYSITSDYAWNWIRQPPGKKLEWMGYISYSGRTSYNPSLKSRITISRDTSKNQFSLKLSSVTAADTAVYYCSRHYGDYWGQGTLVTVSS VL: EIVMTQSPATLSVSPGERATLSCKASQNVGTNVAWYQQKPGQSPRALIYSASYRYSGIPARFSGSGSGTEFTLTISSLQSEDFAVYFCHQYNSNPLTFGGGTKVEIK | 0.055 nM | 0.086 nM | 
2 | humM2mc51-1-ES93DA (antibody, V domains shown, Mutant of humM2mc51-1) VH: QVQLQESGPGLVKPSETLSLTCTVSGYSITSDYAWNWIRQPPGKKLEWMGYISYSGRTSYNPSLKSRITISRDTSKNQFSLKLSSVTAADTAVYYCSRHYGDYWGQGTLVTVSS VL: DIVMTQSPATLSVSPGERATLSCKASQNVGTNVAWYQQKPGQSPRALIYSASYRYSGIPARFSGSGSGTEFTLTISSLQSEDFAVYFCHQYNANPLTFGGGTKVEIK | 0.045 nM | 0.082 nM | 
3 | humM2mc51-1-N92Q (antibody, V domains shown, VL CDR3 mutant of humM2mc51-1) VH: QVQLQESGPGLVKPSETLSLTCTVSGYSITSDYAWNWIRQPPGKKLEWMGYISYSGRTSYNPSLKSRITISRDTSKNQFSLKLSSVTAADTAVYYCSRHYGDYWGQGTLVTVSS VL: EIVMTQSPATLSVSPGERATLSCKASQNVGTNVAWYQQKPGQSPRALIYSASYRYSGIPARFSGSGSGTEFTLTISSLQSEDFAVYFCHQYQSNPLTFGGGTKVEIK | 0.11 nM | 0.072 nM | 
4 | humM2mc51-1-S93A (antibody, V domains shown, VL CDR3 deamidation-site mutant of humM2mc51-1; also called humM2mc51-S93A) VH: QVQLQESGPGLVKPSETLSLTCTVSGYSITSDYAWNWIRQPPGKKLEWMGYISYSGRTSYNPSLKSRITISRDTSKNQFSLKLSSVTAADTAVYYCSRHYGDYWGQGTLVTVSS VL: EIVMTQSPATLSVSPGERATLSCKASQNVGTNVAWYQQKPGQSPRALIYSASYRYSGIPARFSGSGSGTEFTLTISSLQSEDFAVYFCHQYNANPLTFGGGTKVEIK | 0.037 nM | 0.089 nM | 0.05 nM
